To fix the notation:
B1: CCDC6 (parent)
chain: TLFKKIQALQKEKETLAVNYEKEE
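Further: lentivirally expressed fusions sorted by FACS into six bins by GFP to DsRed ratio, PSI derived from sequencing read proportions per bin multiplied by bin number.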

Variants of B1 are the subject of the series. Put plainly: protein stability index of a GFP-peptide fusion (GPS, HEK-293T) (PSI 1-6); higher = more stable. The settings on record: c terminus: a fixed tail appended.
As to TLFKKIQALQLEKETLAVNYEKEE [K11L], the protein stability index was 3.05.

In the case of TLFKKIQALQKEKETLAVRYEKEE [N19R], the protein stability index was found to be 2.57.

On to TLFKKIQALQKEKETLAVHYEKEE [N19H], for which the protein stability index came to 3.08.

For TLFKKIQALQKEKETLAVEYEKEE [N19E], the protein stability index was determined as 3.64.

For TLFKKIQALQKEKETLAVDYEKEE [N19D], the protein stability index was 3.15.

For the variant TLFKKIQALQKEKETLAVSYEKEE [N19S], the protein stability index stood at 2.99.

As for TLFKKIQALQKEKETLAVPYEKEE [N19P], the protein stability index was 3.24.

Take TLFKKIQALQKEKETLAVTYEKEE [N19T]: the protein stability index is 3.34.

With TLFKKIQALQKEKETLAVYYEKEE [N19Y], the protein stability index was found to be 2.33.

In the case of TLFKKIQAWQKEKETLAVNYEKEE [L9W], the protein stability index worked out at 3.5.

In the case of TLFKKIQAGQKEKETLAVNYEKEE [L9G], the protein stability index is 3.92.

Regarding TLFKKIQAAQKEKETLAVNYEKEE [L9A], the protein stability index came to 3.92.

For the variant TLFKKIQAQQKEKETLAVNYEKEE [L9Q], the protein stability index turned out to be 4.48.

Turning to TLFKKIQAEQKEKETLAVNYEKEE [L9E], the protein stability index was 4.37.

For TLFKKIQANQKEKETLAVNYEKEE [L9N], the protein stability index amounted to 4.55.

In the case of TLFKKIQACQKEKETLAVNYEKEE [L9C], the protein stability index was 4.33.

For TLFKKIQAMQKEKETLAVNYEKEE [L9M], the protein stability index was 2.74.

Consider TLFKKIQAFQKEKETLAVNYEKEE [L9F], for which the protein stability index turned out to be 3.46.

Consider TLFKKIQATQKEKETLAVNYEKEE [L9T], for which the protein stability index came to 4.6.

On to TLFKKIQALQKEKETLAVNYNKEE [E21N], for which the protein stability index was 2.92.

With TLFKKIQALQKEKETLAVNYAKEE [E21A], the protein stability index worked out at 2.26.

In the case of TLFKKIQALQKEKETLAVNYMKEE [E21M], the protein stability index worked out at 2.11.

As to TLFKKIQALQKEKETLAVNYQKEE [E21Q], the protein stability index was found to be 3.1.

Regarding TLFKKIQALQKEKETLAVNYFKEE [E21F], the protein stability index amounted to 1.62.

TLFKKIQALQKEKETLAVNYCKEE [E21C]: the protein stability index came to 2.53.

In the case of TLFKKIQALQKEKETLAVNYWKEE [E21W], the protein stability index was 1.92.

For TLFKKIQALQKEKETLAVNYLKEE [E21L], the protein stability index stood at 2.28.

For the variant TLFQKIQALQKEKETLAVNYEKEE [K4Q], the protein stability index was 3.56.

Turning to TLFMKIQALQKEKETLAVNYEKEE [K4M], the protein stability index was 2.8.

In the case of TLFWKIQALQKEKETLAVNYEKEE [K4W], the protein stability index worked out at 2.74.

Consider TLFPKIQALQKEKETLAVNYEKEE [K4P], for which the protein stability index was 4.83.

For the variant TLFYKIQALQKEKETLAVNYEKEE [K4Y], the protein stability index worked out at 2.58.

For TLFGKIQALQKEKETLAVNYEKEE [K4G], the protein stability index worked out at 3.75.

TLRKKIQALQKEKETLAVNYEKEE [F3R]: the protein stability index was 4.38.

With TLCKKIQALQKEKETLAVNYEKEE [F3C], the protein stability index was 3.62.

For TLWKKIQALQKEKETLAVNYEKEE [F3W], the protein stability index amounted to 2.26.

With TLAKKIQALQKEKETLAVNYEKEE [F3A], the protein stability index amounted to 4.68.

For the variant TLQKKIQALQKEKETLAVNYEKEE [F3Q], the protein stability index stood at 4.78.

For TLFKFIQALQKEKETLAVNYEKEE [K5F], the protein stability index came to 1.61.

For the variant TLFKEIQALQKEKETLAVNYEKEE [K5E], the protein stability index was determined as 4.27.

Turning to TLFKYIQALQKEKETLAVNYEKEE [K5Y], the protein stability index is 2.15.

Consider TLFKAIQALQKEKETLAVNYEKEE [K5A], for which the protein stability index was 2.43.

For the variant TLFKRIQALQKEKETLAVNYEKEE [K5R], the protein stability index was determined as 2.75.

For TLFKQIQALQKEKETLAVNYEKEE [K5Q], the protein stability index came to 3.36.

As for TLFKDIQALQKEKETLAVNYEKEE [K5D], the protein stability index came out at 4.85.

For TLFKMIQALQKEKETLAVNYEKEE [K5M], the protein stability index was 2.22.

Consider TLFKNIQALQKEKETLAVNYEKEE [K5N], for which the protein stability index stood at 3.78.

With TLFKSIQALQKEKETLAVNYEKEE [K5S], the protein stability index was 3.47.

On to TLFKKIQALQKEKETLAVNYEKEW [E24W], for which the protein stability index is 1.91.

As for TLFKKIQALQKEKETLAVNYEKEG [E24G], the protein stability index was 2.68.

With TLFKKIQALQKEKETLAVNYEKEC [E24C], the protein stability index was found to be 3.06.

TLFKKIQALQKEKETLAVNYEKEV [E24V]: the protein stability index turned out to be 2.25.

Consider TLFKKIQALQKEKETLAVNYEKEK [E24K], for which the protein stability index was found to be 2.41.

TLFKKIQALQKEKETLAVNYEKET [E24T]: the protein stability index was 2.82.

Turning to TLFKKIQALQKEKETLAVNYEKEF [E24F], the protein stability index turned out to be 2.04.

Regarding TLFKKIQALQKEKETLAVNYEKEL [E24L], the protein stability index came to 2.55.

As to TLFKKIQALQKEKETLAVNYEKEM [E24M], the protein stability index was 2.34.

As for TLFKKIQALQKEKETVAVNYEKEE [L16V], the protein stability index is 3.23.

TLFKKIQALQKEKETAAVNYEKEE [L16A]: the protein stability index was 3.32.

As to TLFKKIQALQKEKETRAVNYEKEE [L16R], the protein stability index was 3.02.

Take TLFKKIQALQKEKETTAVNYEKEE [L16T]: the protein stability index came out at 3.49.

Turning to TLFKKIQALQKEKETSAVNYEKEE [L16S], the protein stability index was found to be 4.02.

For TLFKKIQALQKEKETNAVNYEKEE [L16N], the protein stability index amounted to 3.6.

On to TLFKKIQALQKEKETMAVNYEKEE [L16M], for which the protein stability index was 3.24.

With TLFKKIQALQKEKETEAVNYEKEE [L16E], the protein stability index came out at 4.07.

TLFKKIQALQKEKETLAVNMEKEE [Y20M]: the protein stability index came to 2.45.

On to TLFKKIQALQKEKETLAVNFEKEE [Y20F], for which the protein stability index was found to be 3.06.

Consider TLFKKIQALQKEKETLAVNDEKEE [Y20D], for which the protein stability index is 4.09.

Regarding TLFKKIQALQKEKETLAVNHEKEE [Y20H], the protein stability index worked out at 3.62.

Turning to TLFKKIQALQKEKETLAVNTEKEE [Y20T], the protein stability index came to 3.62.

For TLFKKIQALQKEKETLAVNREKEE [Y20R], the protein stability index worked out at 3.53.

Regarding TLFKKIQALQKEKETLAVNYEKME [E23M], the protein stability index is 2.7.

Regarding TLFKKIQALQKEKETLAVNYEKYE [E23Y], the protein stability index came to 2.76.

TLFKKIQALQKEKETLAVNYEKTE [E23T]: the protein stability index was 3.02.

As for TLFKKIQALQKEKETLAVNYEKIE [E23I], the protein stability index was found to be 2.69.

TLFKKIQALQKEKETLAVNYEKHE [E23H]: the protein stability index amounted to 2.93.

For TLFKKIQALQKEKETLAVNYEKFE [E23F], the protein stability index was determined as 1.99.

For the variant TLFKKIQALQKEKETLAVNYEKCE [E23C], the protein stability index came out at 2.34.

As to TLFKKIQALQKEKETLAVNYEKSE [E23S], the protein stability index came to 2.89.

Take TLFKKIQALQKEKETLAVNYEKGE [E23G]: the protein stability index was 2.58.

For TLFKKCQALQKEKETLAVNYEKEE [I6C], the protein stability index is 4.44.

Regarding TLFKKNQALQKEKETLAVNYEKEE [I6N], the protein stability index was determined as 4.36.

As for TLFKKVQALQKEKETLAVNYEKEE [I6V], the protein stability index was found to be 3.85.

TLFKKTQALQKEKETLAVNYEKEE [I6T]: the protein stability index amounted to 4.75.

TLFKKHQALQKEKETLAVNYEKEE [I6H]: the protein stability index amounted to 4.17.

On to TLFKKSQALQKEKETLAVNYEKEE [I6S], for which the protein stability index worked out at 4.81.

Turning to TLFKKIQALQKEKEYLAVNYEKEE [T15Y], the protein stability index was 3.08.

With TLFKKIQALQKEKEWLAVNYEKEE [T15W], the protein stability index amounted to 1.92.

Consider TLFKKIQALQKEKEHLAVNYEKEE [T15H], for which the protein stability index was found to be 2.76.

Regarding TLFKKIQALQKEKEPLAVNYEKEE [T15P], the protein stability index stood at 3.56.

For the variant TLFKKIQALQKEKEKLAVNYEKEE [T15K], the protein stability index turned out to be 3.3.

With TLFKKIQALQKEKESLAVNYEKEE [T15S], the protein stability index came to 2.91.

For the variant TLFKKIQALQKEKENLAVNYEKEE [T15N], the protein stability index amounted to 3.23.

For the variant TLFKKIQALQKEKEGLAVNYEKEE [T15G], the protein stability index was 3.25.

The values above are taken from the supplement of paper PMC10567573.
